Source: publication doi:10.1101/2021.11.02.466974 (bioRxiv, 2021)

What was measured:
M1-linked diUb = M1-linked diUb (UniProt P0CG48); assay: ITC
monoUb = monoUb (UniProt P0CG48 1-76); assay: ITC
SEC = target: the molecule itself; assay: SEC
[1] = target: the molecule itself; assay: Western blot of lysate under non-denaturing conditions

ETSELREALLKIFPDSEQKLKIDQILAAHPYMKDLNALSALVLD (domain or fragment) [isolated N4BP1 CUE domain (residues 850-893) used for ITC, NMR and analytical gel filtration]
binding result (M1-linked diUb): binds
binding result (monoUb): binds
binding result (SEC): binds

B1: mouse N4BP1 (613-893) in cell lysate (dimerization test of Fig. 2B) (domain or fragment)
chain: ADLKHIVIDGSNVAITHGLKKFFSCRGIAIAVEYFWKLGNRNITVFVPQWRTRRDPNITEQHFLTQLQELGILSLTPARMVFGERIASHDDRFLLHLADKTGGIIVTNDNFREFVTESVSWREIITKRLLQYTFVGDIFMVPDDPLGRNGPRLEEFLRKEAFLRHMQPLLNALPSVGTFDPGFRSPSTQVANNSHQPPPRIQTSSSPWLPQQSHFTALATLPSMQQNPPLPAQRSSAETSELREALLKIFPDSEQKLKIDQILAAHPYMKDLNALSALVLD
stoichiometry N [1]: 2
